Experimental data reported in patent publication US10973880B2, “Compositions and methods for treating pulmonary hypertension” (Acceleron Pharma Inc., priority 2016, dated 2021).

How the values were obtained:
activin A [1] = target: T1, activin A (Homo sapiens, UniProt P08476); experiment: A-204 reporter gene assay, pGL3(CAGA)12 luciferase; type: cell-based; settings: Example 13
T1 sequence (P08476 311-426): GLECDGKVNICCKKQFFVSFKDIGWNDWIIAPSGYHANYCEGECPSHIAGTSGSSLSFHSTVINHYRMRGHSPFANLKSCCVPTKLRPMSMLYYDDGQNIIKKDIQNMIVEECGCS
Excerpt: An A-204 reporter gene assay was used to evaluate the effects of ActRIIB-Fc proteins and GDF traps on signaling by GDF-11 and activin A. Cell line: human rhabdomyosarcoma (derived from muscle). Reporter vector: pGL3(CAGA)12 (described in Dennler et al, 1998, EMBO 17: 3091-3100). The CAGA12 motif is present in TGF-beta responsive genes (e.g., PAI-1 gene), so this vector is of general use for factors signaling through SMAD2 and 3.
Day 1: Split A-204 cells into 48-well plate.
Day 2: A-204 cells transfected with 10 ug pGL3(CAGA)12 or pGL3(CAGA)12(10 ug)+pRLCMV (1 μg) and Fugene.
Day 3: Add factors (diluted into medium+0.1% BSA). Inhibitors need to be preincubated with factors for 1 hr before adding to cells. Six hrs later, cells were rinsed with PBS and lysed.
This is followed by a luciferase assay.
(§1) In addition, an A-204 Reporter Gene Assay was used to evaluate the effects of ALK4-Fc:ActRIIB-Fc heterodimer and ActRIIB-Fc:ActRIIB-Fc homodimer on signaling by activin A, activin B, GDF11, GDF8, BMP10, and BMP9. Cell line: Human Rhabdomyosarcoma (derived from muscle). Reporter vector: pGL3(CAGA)12 (as described in Dennler et al, 1998, EMBO 17: 3091-3100). The CAGA12 motif is present in TGFβ responsive genes (PAI-1 gene), so this vector is of general use for factors signaling through Smad2 and 3. An exemplary A-204 Reporter Gene Assay is outlined below. • Day 1: Split A-204 cells into 48-well plate. • Day 2: A-204 cells transfected with 10 ug pGL3(CAGA)12 or pGL3(CAGA)12(10 ug)+pRLCMV (1 ug) and Fugene. • Day 3: Add factors (diluted into medium+0.1% BSA). Inhibitors need to be pre-incubated with Factors for about one hr before adding to cells. About six hrs later, cells are rinsed with PBS and then lysed.
(§2) Following the above steps, a Luciferase assay was performed.

GDF11 [2] = target: T2, GDF11 (Homo sapiens, UniProt O95390); experiment: A-204 reporter gene assay, pGL3(CAGA)12 luciferase; type: cell-based; settings: Example 13
T2 sequence (O95390 299-407): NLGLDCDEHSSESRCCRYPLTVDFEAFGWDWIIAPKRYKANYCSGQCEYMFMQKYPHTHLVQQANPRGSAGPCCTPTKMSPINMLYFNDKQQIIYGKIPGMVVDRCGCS
Excerpt: Day 1: Split A-204 cells into 48-well plate. […]
as §1, §2

BMP10 = target: T3, BMP10 (Homo sapiens, UniProt O95393); experiment: Biacore-based binding assay, receptor captured with anti-Fc antibody
T3 sequence (O95393 317-424): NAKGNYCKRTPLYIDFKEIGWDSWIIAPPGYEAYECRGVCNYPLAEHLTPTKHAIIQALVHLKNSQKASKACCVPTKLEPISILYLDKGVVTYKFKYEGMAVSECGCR
Experimental: (§3) A Biacore™-based binding assay was used to compare ligand binding selectivity of the ALK4-Fc:ActRIIB-Fc heterodimeric complex described above with that of ActRIIB-Fc and ALK4-Fc homodimer complexes. The ALK4-Fc:ActRIIB-Fc heterodimer, ActRIIB-Fc homodimer, and ALK4-Fc homodimer were independently captured onto the system using an anti-Fc antibody. Ligands were injected and allowed to flow over the captured receptor protein. Results are summarized in the table below, in which ligand off-rates (kd) most indicative of effective ligand traps are denoted in bold font.

BMP6 = target: T4, BMP6 (Homo sapiens, UniProt P22004); experiment: as above
T4 sequence (P22004 375-513): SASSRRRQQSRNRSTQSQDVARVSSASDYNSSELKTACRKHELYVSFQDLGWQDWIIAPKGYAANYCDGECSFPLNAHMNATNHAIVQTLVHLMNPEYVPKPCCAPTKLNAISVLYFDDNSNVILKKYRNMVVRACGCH
Experimental: as §3

BMP9 = target: T5, BMP9 (Homo sapiens, UniProt Q9UK05); experiment: as above
T5 sequence (Q9UK05 320-429): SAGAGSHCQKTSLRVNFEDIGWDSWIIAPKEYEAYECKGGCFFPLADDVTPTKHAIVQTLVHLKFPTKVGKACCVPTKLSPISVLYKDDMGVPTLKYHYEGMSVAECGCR
Experimental: as §3

GDF11 [3] = target: T2, GDF11; experiment: as above
Experimental: as §3

GDF3 = target: T6, GDF3 (Homo sapiens, UniProt Q9NR23); experiment: as above
T6 sequence (Q9NR23 251-364): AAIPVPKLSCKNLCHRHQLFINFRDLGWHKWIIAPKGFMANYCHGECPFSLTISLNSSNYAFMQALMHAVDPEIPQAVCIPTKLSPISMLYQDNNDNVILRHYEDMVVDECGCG
Experimental: as §3

GDF8 = target: T7, GDF8 (Homo sapiens, UniProt O14793); experiment: as above
T7 sequence (O14793 267-375): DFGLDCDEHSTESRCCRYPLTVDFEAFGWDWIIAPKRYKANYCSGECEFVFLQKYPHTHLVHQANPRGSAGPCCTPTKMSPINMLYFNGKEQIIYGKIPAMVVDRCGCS
Experimental: as §3

activin A [4] = target: T1, activin A; experiment: as above
Experimental: as §3

activin B = target: T8, activin B (Homo sapiens, UniProt P09529); experiment: as above
T8 sequence (P09529 293-407): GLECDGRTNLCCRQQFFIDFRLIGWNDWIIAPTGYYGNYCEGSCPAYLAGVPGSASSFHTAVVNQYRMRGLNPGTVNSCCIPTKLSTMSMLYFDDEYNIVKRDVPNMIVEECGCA
Experimental: as §3

B1: ALK4-Fc:ActRIIB-Fc heterodimer: heteromeric complex of extracellular domains of human ActRIIB and human ALK4, each separately fused to an Fc domain with a linker (protein)
chain 1: SGPRGVQALLCACTSCLQANYTCETDGACMVSIFNLDGMEHHVRTCIPKVELVPAGKPFYCLSSEDLRNTHCCYTDYCNRIDLRVPSGHLKEPEHPSMWGPVE
chain 2: GRGEAETRECIYYNANWELERTNQSGLERCEGEQDKRLHCYASWRNSSGTIELVKKGCWLDDFNCYDRQECVATEENPQVYFCCCEGNFCNERFTHLPEAGGPEVTYEPPPTAPT
modifications: left off: a dimerising Fc or GST; small tags and cut ends
notes: heteromeric complex of extracellular domains of human ActRIIB and human ALK4, each separately fused to an Fc domain with a linker
In the case of B1, the “inhibition of activin A signaling” value (activin A [1]) is reported as “potent inhibitors”, the “inhibition of GDF11 signaling” value (GDF11 [2]) is reported as “potent inhibitors” and the Kd (BMP10) is reported as 0.074 nM. The “ka, BMP10” value (BMP10) was 5.6e+07 M⁻¹ s⁻¹, the “kd, BMP10” value (BMP10) was 0.0041 s⁻¹ and the Kd (BMP6) was 2.7 nM. The “ka, BMP6” value (BMP6) was 2e+06 M⁻¹ s⁻¹, the “kd, BMP6” value (BMP6) was 0.0055 s⁻¹ and the Kd (BMP9) was 3.4 nM. For the same molecule, the “ka, BMP9” value (BMP9) was “Transient*”, the “kd, BMP9” value (BMP9) was “Transient*” and the “ka, GDF11” value (GDF11 [3]) was 3.8e+07 M⁻¹ s⁻¹. For the same molecule, the “kd, GDF11” value (GDF11 [3]) was 0.00011 s⁻¹, the Kd (GDF11 [3]; † = very low signal) was 0.003 nM and the Kd (GDF3) was 4.9 nM. For the same molecule, the “ka, GDF3” value (GDF3) was 3.4e+06 M⁻¹ s⁻¹, the “kd, GDF3” value (GDF3) was 0.017 s⁻¹ and the “ka, GDF8” value (GDF8) was 390000 M⁻¹ s⁻¹. The “kd, GDF8” value (GDF8) was 0.00021 s⁻¹, the Kd (GDF8; † = very low signal) was 0.55 nM and the “ka, Activin A” value (activin A [4]) was 1.3e+07 M⁻¹ s⁻¹. The “kd, Activin A” value (activin A [4]) was 0.00015 s⁻¹, the Kd (activin B) was 0.006 nM and the “ka, Activin B” value (activin B) was 7.1e+06 M⁻¹ s⁻¹. For the same molecule, the “kd, Activin B” value (activin B) was 4e-05 s⁻¹.
